The results in this text go back to paper PMC7375243, “Structural Basis of Human Helicase DDX21 in RNA Binding, Unwinding, and Antiviral Signal Activation” (Advanced Science, 2020).

Settings in all cases: protein: recombinant; tags: N-terminal His-SUMO, removed by ULP1; label: FAM; single strand
The target of one series is T1, DDX21 core S375L/A376E (human, UniProt Q9NR30 188-563, S375L;A376E).
T1 sequence: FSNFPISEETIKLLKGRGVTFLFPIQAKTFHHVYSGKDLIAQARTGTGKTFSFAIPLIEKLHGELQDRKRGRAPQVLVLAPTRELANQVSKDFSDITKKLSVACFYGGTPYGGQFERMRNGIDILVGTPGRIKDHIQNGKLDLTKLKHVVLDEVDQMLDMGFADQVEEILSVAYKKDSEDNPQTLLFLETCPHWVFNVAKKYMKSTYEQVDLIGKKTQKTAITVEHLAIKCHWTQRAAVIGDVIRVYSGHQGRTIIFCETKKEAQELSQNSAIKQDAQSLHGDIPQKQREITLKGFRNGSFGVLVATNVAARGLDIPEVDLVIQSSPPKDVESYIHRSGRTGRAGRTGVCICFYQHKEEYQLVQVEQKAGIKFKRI
Briefly: UV crosslinking; about half of activity; MST: 50 mM Tris pH 7.5, 50 mM KCl, 2 mM MgCl2, 1 mM TCEP, 0.01% NP-40, 0.05 mg/mL BSA, 2 mM AMPPNP, 50 nM FAM-RNA; temperature not given; crosslinking buffer not in material.

Series [1] has as its target T2, DDX21 core D339H/E340G (DEV mutant) (human, UniProt Q9NR30 188-563, D339H;E340G).
T2 sequence: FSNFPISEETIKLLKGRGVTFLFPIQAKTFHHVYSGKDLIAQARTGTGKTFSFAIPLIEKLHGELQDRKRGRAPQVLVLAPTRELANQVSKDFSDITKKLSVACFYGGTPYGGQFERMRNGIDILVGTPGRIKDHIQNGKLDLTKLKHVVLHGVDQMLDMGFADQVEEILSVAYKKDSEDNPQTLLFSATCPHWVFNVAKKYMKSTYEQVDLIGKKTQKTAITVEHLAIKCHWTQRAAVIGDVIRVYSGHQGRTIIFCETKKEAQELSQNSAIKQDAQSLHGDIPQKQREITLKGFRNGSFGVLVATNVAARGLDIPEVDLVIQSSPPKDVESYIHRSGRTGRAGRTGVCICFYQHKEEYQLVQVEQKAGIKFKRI
Briefly: UV crosslinking; highest activity of all; MST: 50 mM Tris pH 7.5, 50 mM KCl, 2 mM MgCl2, 1 mM TCEP, 0.01% NP-40, 0.05 mg/mL BSA, 2 mM AMPPNP, 50 nM FAM-RNA; temperature not given; crosslinking buffer not in material.

The target of another series is T3, DDX21 core del-loop (human, UniProt Q9NR30 188-563, del401-405).
T3 sequence: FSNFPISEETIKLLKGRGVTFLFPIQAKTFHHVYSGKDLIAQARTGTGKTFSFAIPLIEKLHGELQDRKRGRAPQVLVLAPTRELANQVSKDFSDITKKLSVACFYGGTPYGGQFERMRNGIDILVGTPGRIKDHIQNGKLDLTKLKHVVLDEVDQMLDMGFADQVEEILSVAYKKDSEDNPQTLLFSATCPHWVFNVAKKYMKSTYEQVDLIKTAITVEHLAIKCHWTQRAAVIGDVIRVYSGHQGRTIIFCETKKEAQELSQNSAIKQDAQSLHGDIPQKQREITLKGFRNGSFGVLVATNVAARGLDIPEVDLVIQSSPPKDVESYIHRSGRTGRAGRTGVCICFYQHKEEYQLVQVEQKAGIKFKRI
In words: UV crosslinking; retains more than half; MST: 50 mM Tris pH 7.5, 50 mM KCl, 2 mM MgCl2, 1 mM TCEP, 0.01% NP-40, 0.05 mg/mL BSA, 2 mM AMPPNP, 50 nM FAM-RNA; temperature not given; crosslinking buffer not in material.

A further series has as its target T4, DDX21 core 7A (human, UniProt Q9NR30 188-563, R270A;T315A;R318A;D321A;Q352A;R476A;T494A).
T4 sequence: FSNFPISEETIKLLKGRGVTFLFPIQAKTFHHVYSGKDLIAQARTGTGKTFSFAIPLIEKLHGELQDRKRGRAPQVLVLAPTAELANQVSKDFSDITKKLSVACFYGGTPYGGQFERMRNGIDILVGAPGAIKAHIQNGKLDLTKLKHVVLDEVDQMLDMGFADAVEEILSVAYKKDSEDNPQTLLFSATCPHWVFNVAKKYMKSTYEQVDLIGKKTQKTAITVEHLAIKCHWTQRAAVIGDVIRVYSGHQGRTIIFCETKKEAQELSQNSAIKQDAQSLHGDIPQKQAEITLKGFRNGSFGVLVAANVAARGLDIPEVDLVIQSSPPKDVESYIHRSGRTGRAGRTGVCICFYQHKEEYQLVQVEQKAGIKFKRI
In words: UV crosslinking; comparable to WT; MST: 50 mM Tris pH 7.5, 50 mM KCl, 2 mM MgCl2, 1 mM TCEP, 0.01% NP-40, 0.05 mg/mL BSA, 2 mM AMPPNP, 50 nM FAM-RNA; temperature not given; crosslinking buffer not in material.

The target in the next series is T5, DDX21 core 8A (human, UniProt Q9NR30 188-563, R255A;R270A;T315A;R318A;D321A;Q352A;R476A;T494A).
T5 sequence: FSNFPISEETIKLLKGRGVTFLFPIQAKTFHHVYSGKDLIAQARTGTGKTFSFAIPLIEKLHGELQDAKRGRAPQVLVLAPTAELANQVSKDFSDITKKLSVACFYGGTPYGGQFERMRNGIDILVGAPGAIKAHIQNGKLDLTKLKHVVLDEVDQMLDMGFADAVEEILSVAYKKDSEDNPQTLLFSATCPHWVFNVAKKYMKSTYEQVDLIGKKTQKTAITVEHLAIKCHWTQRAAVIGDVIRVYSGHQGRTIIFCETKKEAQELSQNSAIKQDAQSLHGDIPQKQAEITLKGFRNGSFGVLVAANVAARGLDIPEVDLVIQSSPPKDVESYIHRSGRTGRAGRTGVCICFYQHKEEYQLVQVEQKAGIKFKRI
The description is as above.

Consider UUUUUUUUUUUUUUU (ssRNA) [FAM-U15], for which the binding signal with DDX21 core S375L/A376E is ~50 % of WT; with DDX21 core del-loop, > 50 % of WT. Further, the binding result (in series [1]; with DDX21 core 7A; with DDX21 core 8A) was “binds” throughout.
